Reference: patent US5434246A, “Parathyroid hormone derivatives” (Takeda Chemical Industries, Ltd., priority 1992, dated 1995)
Where “and” joins values, the source holds several entries; their conditions need not be identical. Equal entries are not always repeated.

What was measured:
PTH receptor = biological target: T1, PTH receptor (Mus musculus, UniProt P41593); experiment: cAMP production in MC3T3-EI osteoblast-like cells (biological activity of PTH(1-34) derivatives); format: cell-based; settings: 0.01-100 nM derivative, room temperature 30 minutes, hPTH(1-34) standard = 1.00
T1 construct: a mouse cranial bone-derived osteoblast-like cell strain, MC3T3-EI cells; endogenous in cells; host or cells: MC3T3-E1 mouse osteoblast-like cells
T1 sequence (P41593 27-591): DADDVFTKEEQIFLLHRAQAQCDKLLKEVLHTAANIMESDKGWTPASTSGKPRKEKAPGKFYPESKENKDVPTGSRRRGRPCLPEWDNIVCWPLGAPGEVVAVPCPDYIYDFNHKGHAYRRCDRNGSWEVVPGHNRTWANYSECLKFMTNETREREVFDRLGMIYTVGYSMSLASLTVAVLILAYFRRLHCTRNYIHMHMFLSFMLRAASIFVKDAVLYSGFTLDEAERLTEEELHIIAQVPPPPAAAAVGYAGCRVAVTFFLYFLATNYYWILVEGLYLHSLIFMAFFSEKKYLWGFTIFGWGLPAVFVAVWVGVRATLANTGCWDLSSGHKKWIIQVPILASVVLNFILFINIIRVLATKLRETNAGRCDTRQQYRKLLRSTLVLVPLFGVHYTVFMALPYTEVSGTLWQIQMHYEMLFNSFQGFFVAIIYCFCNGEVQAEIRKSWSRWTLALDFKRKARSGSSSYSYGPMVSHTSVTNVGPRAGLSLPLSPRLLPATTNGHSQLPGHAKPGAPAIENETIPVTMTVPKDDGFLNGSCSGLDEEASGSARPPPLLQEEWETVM
Protocol: The biological activity of the PTH (1-34) derivatives was evaluated by a modified version of the method reported by Shigeno et al. in The Journal of Biological Chemistry 263, 18369-18377 (1988). A culture solution (Hank's solution, containing 20 mM N-2-hydroxyethylpiperazine-N'-2-ethanesulfonic acid-(HEPES), 0.1% bovine serum albumin and 0.5 mM isobutylmethyl-xanthine) containing a 0.01, 0.1, 1, 10 or 100 nM derivative was added in an amount of 100 μl to a mouse cranial bone-derived osteoblast-like cell strain, MC3T3-EI cells, cultivated on a 96-well multiplate (Nunclon, Nunc), followed by reaction at room temperature for 30 minutes. After addition of 100 μl of 0.2N hydrochloric acid, the mixture was immersed in boiling water for 2.5 minutes, and cyclic adenosine monophosphate (cAMP) produced by a PTH receptor was extracted from the cells. The total cAMP in the culture solution and the cells was assayed using a commercial radioimmunoassay kit (cyclic AMP [^125 I] kit "Du Pont-Daiichi", Daiichi Kagaku Yakuhin).

PTH receptor (mouse) = PTH receptor (mouse) (UniProt P41593)

Row | Molecule | Biological Activity, Represented by Relative Activity to hPTH(1-34) (PTH receptor) | cAMP production in MC3T3-E1 cells, relative activity to hPTH(1-34) (relative activity to hPTH(1-34)) (PTH receptor (mouse))
1 | CC[C@H](C)[C@H](NC(=O)[C@H](CCC(=O)O)NC(=O)[C@@H](C)NC(=O)[C@@H](NC(=O)[C@@H](N)CO)C(C)C)C(=O)N[C@@H](CCC(N)=O)C(=O)N[C@@H](CC(C)C)C(=O)N[C@@H](CCSC)C(=O)N[C@@H](Cc1c[nH]cn1)C(=O)N[C@@H](CC(N)=O)C(=O)N[C@@H](CC(C)C)C(=O)NCC(=O)N[C@@H](CCCCN)C(=O)N[C@@H](Cc1c[nH]cn1)C(=O)N[C@@H](CC(C)C)C(=O)N[C@@H](CC(N)=O)C(=O)N[C@@H](CO)C(=O)N[C@@H](CCSC)C(=O)N[C@@H](CCC(=O)O)C(=O)N[C@@H](CCCNC(=N)N)C(=O)N[C@H](C(=O)N[C@@H](CCC(=O)O)C(=O)N[C@@H](Cc1c[nH]c2ccccc12)C(=O)N[C@@H](CC(C)C)C(=O)N[C@@H](CCCNC(=N)N)C(=O)N[C@@H](CCCCN)C(=O)N[C@@H](CCCCN)C(=O)N[C@@H](CC(C)C)C(=O)N[C@@H](CCC(N)=O)C(=O)N[C@@H](CC(=O)O)C(=O)N[C@H](C(=O)N[C@@H](Cc1c[nH]cn1)C(=O)N[C@@H](CC(N)=O)C(=O)N[C@@H](Cc1ccccc1)C(=O)O)C(C)C)C(C)C [[D-Ala^3]hPTH(1-34)] | 2.17 | 
2 | CC[C@H](C)[C@H](NC(=O)[C@H](CCC(=O)O)NC(=O)[C@H](CO)NC(=O)[C@@H](NC(=O)[C@@H](N)CO)C(C)C)C(=O)N[C@@H](CCC(N)=O)C(=O)N[C@@H](CC(C)C)C(=O)N[C@@H](CCSC)C(=O)N[C@@H](Cc1c[nH]cn1)C(=O)N[C@@H](CC(N)=O)C(=O)N[C@@H](CC(C)C)C(=O)NCC(=O)N[C@@H](CCCCN)C(=O)N[C@@H](Cc1c[nH]cn1)C(=O)N[C@@H](CC(C)C)C(=O)N[C@H](CCCCN)C(=O)N[C@@H](CO)C(=O)N[C@@H](CCSC)C(=O)N[C@@H](CCC(=O)O)C(=O)N[C@@H](CCCNC(=N)N)C(=O)N[C@H](C(=O)N[C@@H](CCC(=O)O)C(=O)N[C@@H](Cc1c[nH]c2ccccc12)C(=O)N[C@@H](CC(C)C)C(=O)N[C@@H](CCCNC(=N)N)C(=O)N[C@@H](CCCCN)C(=O)N[C@@H](CCCCN)C(=O)N[C@@H](CC(C)C)C(=O)N[C@@H](CCC(N)=O)C(=O)N[C@@H](CC(=O)O)C(=O)N[C@H](C(=O)N[C@@H](Cc1c[nH]cn1)C(=O)N[C@@H](CC(N)=O)C(=O)N[C@@H](Cc1ccccc1)C(=O)O)C(C)C)C(C)C [[D-Lys^16]hPTH(1-34)] | 0.86 | 
3 | CC[C@H](C)[C@H](NC(=O)[C@H](CCC(=O)O)NC(=O)[C@H](CO)NC(=O)[C@@H](NC(=O)[C@@H](N)CO)C(C)C)C(=O)N[C@@H](CCC(N)=O)C(=O)N[C@@H](CC(C)C)C(=O)N[C@@H](CCSC)C(=O)N[C@@H](Cc1c[nH]cn1)C(=O)N[C@@H](CC(N)=O)C(=O)N[C@@H](CC(C)C)C(=O)NCC(=O)N[C@@H](CCCCN)C(=O)N[C@@H](Cc1c[nH]cn1)C(=O)N[C@@H](CC(C)C)C(=O)N[C@@H](CCC(=O)O)C(=O)N[C@@H](CO)C(=O)N[C@@H](CCSC)C(=O)N[C@@H](CCC(=O)O)C(=O)N[C@@H](CCCNC(=N)N)C(=O)N[C@H](C(=O)N[C@@H](CCC(=O)O)C(=O)N[C@@H](Cc1c[nH]c2ccccc12)C(=O)N[C@@H](CC(C)C)C(=O)N[C@@H](CCCNC(=N)N)C(=O)N[C@@H](CCCCN)C(=O)N[C@@H](CCCCN)C(=O)N[C@@H](CC(C)C)C(=O)N[C@@H](CCC(N)=O)C(=O)N[C@@H](CC(=O)O)C(=O)N[C@H](C(=O)N[C@@H](Cc1c[nH]cn1)C(=O)N[C@@H](CC(N)=O)C(=O)N[C@@H](Cc1ccccc1)C(=O)O)C(C)C)C(C)C [[Glu^16]hPTH(1-34)] | 1.55 | 
4 | [Arg^26,27 ]hPTH(1-34) (from UniProt P01270) (peptide) |  | 0.98
5 | [D-Ala^3 ]hPTH(1-34) (from UniProt P01270) (peptide) |  | 2.17
6 | [D-Lys^16 ]hPTH(1-34) (from UniProt P01270) (peptide) |  | 0.86
7 | [Gln^16 ]hPTH(1-34) (from UniProt P01270) (peptide) |  | 1.73
8 | [Gln^25,26,27 ]hPTH(1-34) (from UniProt P01270) (peptide) |  | 0.41
9 | [Glu^16 ]hPTH(1-34) (from UniProt P01270) (peptide) |  | 1.55
10 | [Hci^16,Gln^27 ]hPTH(1-34) (from UniProt P01270) (peptide) |  | 1.54
11 | [Lys^15,16,17 ]hPTH(1-34) (from UniProt P01270) (peptide) |  | 7.62
12 | [Lys^15,16,His^27 ]hPTH(1-34) (from UniProt P01270) (peptide) |  | 1.49
13 | [Lys^16,Asp^17 ]hPTH(1-34) (from UniProt P01270) (peptide) |  | 1.24
14 | [Orn^16,Gln^27 ]hPTH(1-34) (from UniProt P01270) (peptide) |  | 1.82
15 | [Thr^16 ]hPTH(1-34) (from UniProt P01270) (peptide) |  | 1.74
16 | [Thr^27 ]hPTH(1-34) (from UniProt P01270) (peptide) |  | 0.96

Second part, the molecule after the results:

Row | Biological Activity, Represented by Relative Activity to hPTH(1-34) (PTH receptor) | cAMP production in MC3T3-E1 cells, relative activity to hPTH(1-34) (relative activity to hPTH(1-34)) (PTH receptor (mouse)) | Molecule
17 | 1.73 |  | CC[C@H](C)[C@H](NC(=O)[C@H](CCC(=O)O)NC(=O)[C@H](CO)NC(=O)[C@@H](NC(=O)[C@@H](N)CO)C(C)C)C(=O)N[C@@H](CCC(N)=O)C(=O)N[C@@H](CC(C)C)C(=O)N[C@@H](CCSC)C(=O)N[C@@H](Cc1c[nH]cn1)C(=O)N[C@@H](CC(N)=O)C(=O)N[C@@H](CC(C)C)C(=O)NCC(=O)N[C@@H](CCCCN)C(=O)N[C@@H](Cc1c[nH]cn1)C(=O)N[C@@H](CC(C)C)C(=O)N[C@@H](CCC(N)=O)C(=O)N[C@@H](CO)C(=O)N[C@@H](CCSC)C(=O)N[C@@H](CCC(=O)O)C(=O)N[C@@H](CCCNC(=N)N)C(=O)N[C@H](C(=O)N[C@@H](CCC(=O)O)C(=O)N[C@@H](Cc1c[nH]c2ccccc12)C(=O)N[C@@H](CC(C)C)C(=O)N[C@@H](CCCNC(=N)N)C(=O)N[C@@H](CCCCN)C(=O)N[C@@H](CCCCN)C(=O)N[C@@H](CC(C)C)C(=O)N[C@@H](CCC(N)=O)C(=O)N[C@@H](CC(=O)O)C(=O)N[C@H](C(=O)N[C@@H](Cc1c[nH]cn1)C(=O)N[C@@H](CC(N)=O)C(=O)N[C@@H](Cc1ccccc1)C(=O)O)C(C)C)C(C)C [[Gln^16]hPTH(1-34)]
18 |  | 2.16 | [Arg^16,Gln^27 ]hPTH(1-34) (from UniProt P01270) (peptide)
19 |  | 1.19 | [Gln^26,27 ]hPTH(1-34) (from UniProt P01270) (peptide)
20 |  | 6.39 | [Lys^14,15,16,17 ]hPTH(1-34) (from UniProt P01270) (peptide)
21 |  | 7.47 | [Lys^15,16,17,His^27 ]hPTH(1-34) (from UniProt P01270) (peptide)
22 |  | 5.48 and 3.37 | [Lys^16 ]hPTH(1-34) (from UniProt P01270) (peptide)
23 |  | 8.85 | [Lys^16,17 ]hPTH(1-34) (from UniProt P01270) (peptide)
